Data reported in patent US20120195913A1 (Novartis, published 2012).

T1: BAFFR:Fc fusion protein (human, UniProt Q96RJ3 1-78, biotinylated in the competition ELISA)
T1 construct: Bought reagent; also called human BAFFR:Fc; bio-BAFFR:Fc; not shown: Fc part of the bought fusion protein (Alexis / Axxora)
T1 sequence: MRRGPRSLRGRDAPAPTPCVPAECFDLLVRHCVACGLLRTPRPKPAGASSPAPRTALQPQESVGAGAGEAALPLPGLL

T2: human BAFF receptor (BAFFR) (human, UniProt Q96RJ3 1-184)
T2 sequence: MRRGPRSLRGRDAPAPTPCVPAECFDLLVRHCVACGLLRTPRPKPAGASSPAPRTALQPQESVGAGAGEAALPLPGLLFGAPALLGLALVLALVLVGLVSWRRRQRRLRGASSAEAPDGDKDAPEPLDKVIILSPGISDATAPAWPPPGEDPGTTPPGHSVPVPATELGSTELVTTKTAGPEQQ

T3: recombinant BCMA Fc-fusion protein (UniProt Q02223 1-54, limits assumed)
T3 construct: not shown: Fc part
T3 sequence (looked up): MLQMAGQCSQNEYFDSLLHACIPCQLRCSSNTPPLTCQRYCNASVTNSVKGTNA

T4: BCMA on transfected HEK293 cells (UniProt Q02223 1-184, limits assumed)
T4 construct: whole, on cells
T4 sequence (looked up): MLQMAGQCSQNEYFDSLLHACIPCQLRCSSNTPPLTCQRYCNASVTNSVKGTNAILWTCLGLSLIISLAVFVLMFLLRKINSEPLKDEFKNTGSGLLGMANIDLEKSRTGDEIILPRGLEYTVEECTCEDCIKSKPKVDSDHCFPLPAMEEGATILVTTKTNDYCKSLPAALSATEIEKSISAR


Legend:
BAFFR:Fc fusion protein = biological target: T1, BAFFR:Fc fusion protein; assay: BLyS/BAFFR:Fc competition ELISA; antibody titrated, BLyS coated
Protocol: 96-well MaxiSorp plates are coated over night at 4° C. with human soluble BLyS. After coating, the wells were washed 4 times with PBS/0.05% Tween20 (PBST) and then blocked for 1 h at 37° C. with PBST containing 1% bovine serum albumin followed by 4 washing steps with PBST. Biotinylated human BAFFR:Fc fusion protein (Axxora) at 20 ng/ml was added and captured for 1 h at 37° C. together with increasing concentrations of anti-BAFFR antibodies. After another washing round, ExtrAvidin-Alkaline Phosphatase (Sigma) was added to the wells and incubated for 30 minutes at 37° C. The bound phosphatase was detected by adding a solution containing p-nitrophenyl phosphate in diethanolamin (Sigma). The color reaction was stopped after ca. 20 minutes with an equal volume of 2N sodium hydroxide and the absorbance was measured at 405 nm on a plate reader (SpectraMax 190, Molecular Devices).

[1] = biological target: T2, human BAFF receptor (BAFFR); assay: cell-based or functional assay
[2] = biological target: T2, human BAFF receptor (BAFFR); assay: FACS titration of Fab on Raji cells (endogenous BAFFR)
Protocol: (§1) The EC₅₀ of the Fabs is determined by Fab titration in FACS on transfected HEK293 cells as well as on Raji cells expressing endogenous BAFFR.

[3] = biological target: T3, recombinant BCMA Fc-fusion protein; assay: ELISA titration on Fc-captured antigen
Protocol: (§2) 384-well MaxiSorp plates are coated over night at 4° C. with a goat anti-human IgG, Fc γ fragment specific capture antibody. After coating the wells were washed twice with PBS/0.05% Tween20 (PBST) and then blocked for 1 h at RT with PBST containing 5% milk powder followed by two washing steps with PBST. Recombinant BCMA and TACI Fc-fusion proteins are added and captured for 1 h at RT. Then the purified and diluted BAFFR specific Fabs are added and the plates are incubated for 1 h at RT. To detect the Fabs, an alkaline phosphatase (AP)-conjugated goat anti-human IgG, Fab specific is added and the plates are incubated for 1 h at RT. Following each incubation step the wells are washed five times with PBST. For the detection of the AP-conjugates, AttoPhos (Roche) is used according to the manufacturer's instructions. Fluorescence is measured using a TECAN Spectrafluor plate reader.
(§3) In ELISA the Fabs are titrated from 400 nM down to 0.005 nM on […] captured to a Maxisorp plate via an anti-human Fc antibody. Only MOR07342 and MOR07346 show some cross-reactivity to BCMA at high Fab concentrations >100 nM. In contrast MOR06654, MOR07347, MOR07348, MOR07349 show no binding to BCMA above background. A 1000-fold discrimination factor is met by all Fabs.

[4] = biological target: T2, human BAFF receptor (BAFFR); assay: competition FACS on Raji cells; Fab titrated, competitor biotinylated hsBLyS
Protocol: The BAFFR-BLyS binding assay is performed using Raji cells expressing endogenous BAFFR. The BAFFR specific Fabs are used in final dilutions ranging from 40 to 0.001 nM. The diluted Fabs are incubated in 96-well plates with 5×10⁴ Raji cells per well for 1 h at 4° C. on a shaker. Then biotinylated hsBLyS is added in a final concentration of 25 ng/ml and the cells were incubated for 30 min at 4° C. on a shaker. The cells are washed twice with FACS buffer and then resuspended in phycoerythrin-conjugated Streptavidin (Dianova) which has been diluted 1:200 in FACS buffer. The staining is performed for one hour at 4° C. on a shaker. Finally the cells are washed twice with FAGS buffer, resuspended in FACS buffer and BLyS binding to cell surface BAFFR is detected via fluorescence cytometry in the FACSArray instrument (Becton Dickinson).
The IC50 values of the antibodies of the invention in a human Fab format are determined in a BAFFR-BLyS binding inhibition assay by Fab titration on Raji cells (FACS).

[5] = biological target: T2, human BAFF receptor (BAFFR); assay: FACS titration of Fab on transfected HEK293-hBAFFR cells
Protocol: as §1

[6] = biological target: T3, recombinant BCMA Fc-fusion protein; assay: ELISA on Fc-captured recombinant BCMA Fc-fusion
Protocol: as §2, §3

[7] = biological target: T4, BCMA on transfected HEK293 cells; assay: FACS on BCMA-transfected HEK293 cells
Protocol: In FACS the following Fabs are analyzed on BCMA-transfected HEK293 cells and titrated from 1 μM down to 0.005 nM: MOR06654, MOR06743, MOR07342, MOR07347, MOR7348 and MOR07349. At 330 nM only MOR07342 show an elevated binding signal which is 2-fold over background. All other tested Fabs show no signal at this concentration.

IC50 (BAFFR:Fc fusion protein) [pM] | B-cell proliferation Agonism EC50 [1] [pM] | B-cell proliferation Inhibition IC50 [1] [pM] | EC50 [2] [pM] | discrimination factor (BAFFR over BCMA) [3] [fold] | IC50 [4] [pM] | EC50 [5] [pM] | binding result [7] | Binder | binding result [6]
100 | > 187000 | 2000 | – | – | – | – | – | MOR06743 Fab (Fab, V domains shown, Human Fab format; also called MOR6743) VH: QVQLQQSGPGLVKPSQTLSLTCAISGDSVSSNSAAWGWIRQSPGRGLEWLGRIYYRSKWYNSYAVSVKSRITINPDTSKNQFSLQLNSVTPEDTAVYYCARYDWVPKIGVFDSWGQGTLVTVSS VL: DIVLTQSPATLSLSPGERATLSCRASQMIDLRYLSWYQQKPGQAPRLLIYGSSSRATGVPARFSGSGSGTDFTLTISSLEPEDFAVYYCQQLYSSPMTFGQGTKVEIK | –
440 | > 187000 | 3500 | 130 | ≥ 1000 | 170 | 240 | no binding (tested: 1 µM) | MOR07349 Fab (Fab, V domains shown, Human Fab format) VH: QVQLQQSGPGLVKPSQTLSLTCAISGDSVSSNSAAWGWIRQSPGRGLEWLGRIYYRSKWWNDYAVSVKSRITINPDTSKNQFSLQLNSVTPEDTAVYYCARYDWVPKIGVFDGWGQGTLVTVSS VL: DIVLTQSPATLSLSPGERATLSCRASQMIDLRYLSWYQQKPGQAPRLLIYGSSSRATGVPARFSGSGSGTDFTLTISSLEPEDFAVYYCQQFYSSPLTFGQGTKVEIK | no binding (tested: titrated from 400 nM down to 0.005 nM)
– | – | – | – | – | 120 | – | – | MOR07685 Fab (Fab, V domains shown) VH: QVQLQQSGPGLVKPSQTLSLTCAISGDSVSSNSAAWGWIRQSPGRGLEWLGRIYYRSKWYNSYAVSVKSRITINPDTSKNQFSLQLNSVTPEDTAVYYCARYQWVPKIGVFDSWGQGTLVTVSS VL: DIVLTQSPATLSLSPGERATLSCRASQMIDLRYLSWYQQKPGQAPRLLIYGSSSRATGVPARFSGSGSGTDFTLTISSLEPEDFAVYYCQQLYSSPMTFGQGTKVEIK | –
140 | > 187000 | 900 | 60 | ≥ 1000 | 90 | 180 | – | MOR07342 Fab (Fab, V domains shown, Human Fab format) VH: QVQLQQSGPGLVKPSQTLSLTCAISGDSVSSNSAAWGWIRQSPGRGLEWLGRIYYRSKWYNNYAVSVKSRITINPDTSKNQFSLQLNSVTPEDTAVYYCARYKWVPKIGVFDSWGQGTLVTVSS VL: DIVLTQSPATLSLSPGERATLSCRASQMIDLRYLSWYQQKPGQAPRLLIYGSSSRATGVPARFSGSGSGTDFTLTISSLEPEDFAVYYCQQFYSSPLTFGQGTKVEIK | –
960 | > 187000 | 2900 | 120 | ≥ 1000 | 200 | 240 | no binding (tested: 1 µM) | MOR07348 Fab (Fab, V domains shown, Human Fab format; also called MOR7348; MOR007348) VH: QVQLQQSGPGLVKPSQTLSLTCAISGDSVSSNSAAWGWIRQSPGRGLEWLGRIYYRSKWYNSYAVSVKSRITINPDTSKNQFSLQLNSVTPEDTAVYYCARYDWVPKIGVFDLWGQGTLVTVSS VL: DIVLTQSPATLSLSPGERATLSCRASQWIEAGYLSWYQQKPGQAPRLLIYGSSSRATGVPARFSGSGSGTDFTLTISSLEPEDFAVYYCQQLYSSPMTFGQGTKVEIK | no binding (tested: titrated from 400 nM down to 0.005 nM)
100 | > 187000 | 1300 | – | ≥ 1000 | 20 | 80 | – | MOR07347 Fab (Fab, V domains shown, Human Fab format) VH: QVQLQQSGPGLVKPSQTLSLTCAISGDSVSSNSAAWGWIRQSPGRGLEWLGRIYYRSKWYNSYAVSVKSRITINPDTSKNQFSLQLNSVTPEDTAVYYCARYQWVPKIGVFDSWGQGTLVTVSS VL: DIVLTQSPATLSLSPGERATLSCRASQEILPEYLSWYQQKPGQAPRLLIYGSSSRATGVPARFSGSGSGTDFTLTISSLEPEDFAVYYCQQFYSSPLTFGQGTKVEIK | no binding (tested: titrated from 400 nM down to 0.005 nM)
